Patent US7109015B2, “Removal of N-terminal methionine from proteins by engineered methionine aminopeptidase” (Academia Sinica, priority 2004, dated 2006)
Several values for one entry are separate records, joined by “and”; a condition that tells them apart may be missing. Equal entries are not always repeated. Where two headings read alike, the source gives them in different places.

Tests used:
synthetic oligopeptides [1] = assay type: biochemical; conditions: for Specific activity (unit/mg): 4 mM oligopeptide, pH 7.5, 37° C.
Protocol: (§1) The oligopeptide substrates used in this experiment were synthesized on the 432A Synergy peptide synthesizer (Applied Biosystems, Foster, Calif., USA). The enzymatic activity of purified MetAP was assayed as described by Ben-Bassat et al., 1987. Briefly, the diluted MetAP enzyme in 10 μl was added to 90 μl of the substrate solution containing 4 mM oligopeptide, 0.1 M potassium phosphate buffer, pH 7.5 and 0.2 mM CoCl2, incubated at 37° C. for 10 min and stopped in boiling water for 2 min. After addition of 0.9 ml of color development mixture containing 0.2 mg of L-amino acid oxidase, 0.03 mg of horseradish peroxidase and 0.2 mg of o-dianisidine in 0.1 M Tris-HCl, pH 7.4, the mixtures were incubated for 10 min at 37° C., and the optical density at 440 nm was recorded. One unit of activity is defined as 1 μmol of amino acids produced per min under the assay conditions and the pure Met was used as standard. The N-terminal residues of the MetAP-treated oligopeptide were further verified by Edman degradation.

synthetic oligopeptides [2] = target: T1, synthetic oligopeptides (Escherichia coli, UniProt P0AE18, M206T/Q233G/Y168G); assay type: biochemical; conditions: dodecapeptides, in vitro
T1 construct: […]; made in house; host or cells: E. coli BL21(DE3)
T1 sequence (P0AE18 2-264 Y168G/M206T/Q233G): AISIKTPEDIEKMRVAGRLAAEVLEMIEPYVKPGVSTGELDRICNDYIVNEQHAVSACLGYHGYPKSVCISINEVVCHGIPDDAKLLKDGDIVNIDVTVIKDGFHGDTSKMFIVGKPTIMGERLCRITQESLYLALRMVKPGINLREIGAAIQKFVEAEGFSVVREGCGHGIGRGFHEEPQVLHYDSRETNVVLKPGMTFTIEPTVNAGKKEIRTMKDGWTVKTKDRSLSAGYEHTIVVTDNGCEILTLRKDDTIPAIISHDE
Protocol: as §1

Met-tagged onconase = assay: In vivo catalytic activity of MetAPs co-expressed with Met-tagged onconase in E. coli BL21(DE3); N-terminus by Edman degradation; assay type: cell-based; conditions: in vivo in E. coli
From the text: Residues Tyr168, Met206 and Gln233 in the putative substrate-binding site of E. coli MetAP were mutated by site-directed mutagenesis based on the crystal structure and amino acid sequence alignment of MetAPs (Ben-Bassat et al., 1987; Lowther et al., 1999; Walker et al., 1999). For the expression of secretory ribonucleases, the ribonuclease gene was cloned and expressed as described previously (Huang et al., 1998).
Most of the co-expressed target protein, e.g., onconase or RC-RNase L1, existed in insoluble cell lysate. They were denatured, renatured and purified as described previously (Liao et al., 2003). The purified ribonucleases were stored in 20 mM sodium phosphate, pH 7.0, for pyroglutamate formation at the N-terminus. Alternatively, the ribonuclease secreted into culture medium through pe1B system was concentrated and purified to electrophoretical homogeneity at a yield of 1˜5 mg per 1 liter of culture (Huang et al., 1998).

B1: MetAP-GTG (protein)
chain: AISIKTPEDIEKMRVAGRLAAEVLEMIEPYVKPGVSTGELDRICNDYIVNEQHAVSACLGYHGYPKSVCISINEVVCHGIPDDAKLLKDGDIVNIDVTVIKDGFHGDTSKMFIVGKPTIMGERLCRITQESLYLALRMVKPGINLREIGAAIQKFVEAEGFSVVREGCGHGIGRGFHEEPQVLHYDSRETNVVLKPGMTFTIEPTVNAGKKEIRTMKDGWTVKTKDRSLSAGYEHTIVVTDNGCEILTLRKDDTIPAIISHDE
**Q.** Which “In vitro catalytic activity” value (synthetic oligopeptides [1]; oligopeptides with Gln at the penultimate residue) does the source give for B1 here?
**A.** the most activity

**Q.** And the “Specific activity (unit/mg)” value (synthetic oligopeptides [1]; substrate MADY (SEQ ID NO:7))?
**A.** 1.68 ± 0.51 unit/mg

**Q.** What about the “Specific activity (unit/mg)” value (synthetic oligopeptides [1]; substrate MADYLT (SEQ ID NO:8)) of the same molecule?
**A.** 2.50 ± 0.42 unit/mg

**Q.** What about the “Specific activity (unit/mg)” value (synthetic oligopeptides [1]; substrate MQDYLT (SEQ ID NO:9)) of the same molecule?
**A.** 0.23 ± 0.01 unit/mg

**Q.** What about the “Specific activity (unit/mg)” value (synthetic oligopeptides [1]; substrate […] (SEQ ID NO:5)) of the same molecule?
**A.** 9.80 ± 0.26 unit/mg

**Q.** And the “Specific activity (unit/mg)” value (synthetic oligopeptides [1]; substrate […] (SEQ ID NO:6))?
**A.** 4.24 ± 0.14 unit/mg

**Q.** What about the “Specific activity on […] as % of that for […]” value (synthetic oligopeptides [2]) of the same molecule?
**A.** 43%

**Q.** What about the “Catalytic activity (%): percent of penultimate residue removed” value (“Catalytic activity (%): percent” below) (Met-tagged onconase; substrate MAA-Onc) of the same molecule?
**A.** 30%

**Q.** What about the “Catalytic activity (%): removal of N-terminal Met” value (“Catalytic activity (%): removal” for short) (Met-tagged onconase; substrate MAA-Onc) of the same molecule?
**A.** 100%

**Q.** What about the “Catalytic activity (%): percent” value (Met-tagged onconase; substrate MAG-Onc) of the same molecule?
**A.** 16%

**Q.** And the “Catalytic activity (%): removal” value (Met-tagged onconase; substrate MAG-Onc)?
**A.** 86%

**Q.** And the “Catalytic activity (%): removal” value (Met-tagged onconase; substrate MAL-Onc)?
**A.** 100%

**Q.** What about the “Catalytic activity (%): removal” value (Met-tagged onconase; substrate MAM-Onc) of the same molecule?
**A.** 96%

**Q.** And the “Catalytic activity (%): removal” value (Met-tagged onconase; substrate MDD-Onc)?
**A.** 27%

**Q.** What about the “Catalytic activity (%): removal” value (Met-tagged onconase; substrate MED-Onc) of the same molecule?
**A.** 35%

**Q.** What about the “Catalytic activity (%): percent” value (Met-tagged onconase; substrate MFA-Onc) of the same molecule?
**A.** 100%

**Q.** And the “Catalytic activity (%): removal” value (Met-tagged onconase; substrate MFA-Onc)?
**A.** 36%

**Q.** What about the “Catalytic activity (%): removal” value (Met-tagged onconase; substrate MFD-Onc) of the same molecule?
**A.** 23%

**Q.** And the “Catalytic activity (%): removal” value (Met-tagged onconase; substrate MIA-Onc)?
**A.** 96%

**Q.** And the “Catalytic activity (%): removal” value (Met-tagged onconase; substrate MID-Onc)?
**A.** 94%

**Q.** And the “Catalytic activity (%): removal” value (Met-tagged onconase; substrate MKA-Onc)?
**A.** 9%

**Q.** What about the “Catalytic activity (%): removal” value (Met-tagged onconase; substrate MKD-Onc) of the same molecule?
**A.** 7%

**Q.** What about the “Catalytic activity (%): percent” value (Met-tagged onconase; substrate MLA-Onc) of the same molecule?
**A.** 80%

**Q.** And the “Catalytic activity (%): removal” value (Met-tagged onconase; substrate MLA-Onc)?
**A.** 100%

**Q.** And the “Catalytic activity (%): removal” value (Met-tagged onconase; substrate MLD-Onc)?
**A.** 90% and 98%

**Q.** What about the “Catalytic activity (%): percent” value (Met-tagged onconase; substrate MLG-Onc) of the same molecule?
**A.** 46%

**Q.** And the “Catalytic activity (%): removal” value (Met-tagged onconase; substrate MLG-Onc)?
**A.** 87%

**Q.** What about the “Catalytic activity (%): percent” value (Met-tagged onconase; substrate MLH-Onc) of the same molecule?
**A.** 51%

**Q.** And the “Catalytic activity (%): removal” value (Met-tagged onconase; substrate MLH-Onc)?
**A.** 100%

**Q.** And the “Catalytic activity (%): percent” value (Met-tagged onconase; substrate MLL-Onc)?
**A.** 55%

**Q.** What about the “Catalytic activity (%): removal” value (Met-tagged onconase; substrate MLL-Onc) of the same molecule?
**A.** 93%

**Q.** What about the “Catalytic activity (%): removal” value (Met-tagged onconase; substrate MLM-Onc) of the same molecule?
**A.** 100%

**Q.** What about the “Catalytic activity (%): percent” value (Met-tagged onconase; substrate MLN-Onc) of the same molecule?
**A.** 68%

**Q.** And the “Catalytic activity (%): removal” value (Met-tagged onconase; substrate MLN-Onc)?
**A.** 100%

**Q.** And the “Catalytic activity (%): percent” value (Met-tagged onconase; substrate MLP-Onc)?
**A.** 95%

**Q.** And the “Catalytic activity (%): removal” value (Met-tagged onconase; substrate MLP-Onc)?
**A.** 55%

**Q.** And the “Catalytic activity (%): percent” value (Met-tagged onconase; substrate MLS-Onc)?
**A.** 69%

**Q.** What about the “Catalytic activity (%): removal” value (Met-tagged onconase; substrate MLS-Onc) of the same molecule?
**A.** 87%

**Q.** What about the “Catalytic activity (%): percent” value (Met-tagged onconase; substrate MLT-Onc) of the same molecule?
**A.** 54%

**Q.** What about the “Catalytic activity (%): removal” value (Met-tagged onconase; substrate MLT-Onc) of the same molecule?
**A.** 72%

**Q.** What about the “Catalytic activity (%): percent” value (Met-tagged onconase; substrate MLV-Onc) of the same molecule?
**A.** 69%

**Q.** And the “Catalytic activity (%): removal” value (Met-tagged onconase; substrate MLV-Onc)?
**A.** 97%

**Q.** What about the “Catalytic activity (%): removal” value (Met-tagged onconase; substrate MQD-Onc) of the same molecule?
**A.** 97%

**Q.** And the “Catalytic activity (%): percent” value (Met-tagged onconase; substrate MQM-Onc)?
**A.** 100%

**Q.** What about the “Catalytic activity (%): removal” value (Met-tagged onconase; substrate MQM-Onc) of the same molecule?
**A.** 100%

**Q.** And the “Catalytic activity (%): value in parenthesis after Met and Gln removal (third cleavage site, second Met)” value (Met-tagged onconase; substrate MQM-Onc)?
**A.** 73%

**Q.** And the “Catalytic activity (%): percent” value (Met-tagged onconase; substrate MQN-Onc)?
**A.** 90%

**Q.** What about the “Catalytic activity (%): removal” value (Met-tagged onconase; substrate MQN-Onc) of the same molecule?
**A.** 83%

**Q.** What about the “Catalytic activity (%): percent” value (Met-tagged onconase; substrate MQP-Onc) of the same molecule?
**A.** 100%

**Q.** What about the “Catalytic activity (%): removal” value (Met-tagged onconase; substrate MQP-Onc) of the same molecule?
**A.** 54%

**Q.** And the “Catalytic activity (%): percent” value (Met-tagged onconase; substrate MQT-Onc)?
**A.** 79%

**Q.** What about the “Catalytic activity (%): removal” value (Met-tagged onconase; substrate MQT-Onc) of the same molecule?
**A.** 86%

**Q.** And the “Catalytic activity (%): removal” value (Met-tagged onconase; substrate MRA-Onc)?
**A.** 8%

**Q.** And the “Catalytic activity (%): removal” value (Met-tagged onconase; substrate MRD-Onc)?
**A.** 4%

**Q.** And the “Catalytic activity (%): percent” value (Met-tagged onconase; substrate MWA-Onc)?
**A.** 89%

**Q.** What about the “Catalytic activity (%): removal” value (Met-tagged onconase; substrate MWA-Onc) of the same molecule?
**A.** 100%

**Q.** What about the “Catalytic activity (%): removal” value (Met-tagged onconase; substrate MWD-Onc) of the same molecule?
**A.** 78%

**Q.** And the “Catalytic activity (%): removal” value (Met-tagged onconase; substrate MWD-Onc, listed as GTG)?
**A.** much higher activities

**Q.** And the “Catalytic activity (%): removal” value (Met-tagged onconase; substrate MYA-Onc)?
**A.** 22%

**Q.** What about the “Catalytic activity (%): removal” value (Met-tagged onconase; substrate MYD-Onc) of the same molecule?
**A.** 20%

**Q.** What about the “Catalytic activity (%): removal” value (Met-tagged onconase; substrate MYD-Onc, listed as GTG) of the same molecule?
**A.** much higher activities
